Assay results taken from patent publication US20260167679A1, “FUSION PROTEIN TARGETING MITOCHONDRIA, METHOD OF MAKING AND USE THEREOF” (UNIVERSITY OF ROCHESTER, priority 2020, published 2026).

Test system: C. elegans
Assay: Mitochondrial mass and unfolded protein response (staining, quantitative proteomics)
Type: in vivo, Caenorhabditis elegans
Method: Scale bar is 10 μm. Experiment was performed 3 times with similar results. […] Scale bar is 10 μm. Experiment was performed 3 times with similar results. C) Relative pharynx TMRE fluorescence in mtON (ex. array) animals stained at day 4 of adulthood under the indicated conditions. One-way ANOVA with Tukey's test, *p=0.0001, n=33, 34, 26, 35 animals for each bar from left to right. D) Relative pharynx MitoTracker fluorescence in animals stained at day 4 of adulthood.
Genes encoding proteins are as follows. Complex I: nuo-1, nuo-5. complex II: sdha-1, mev-1, sdhb-1. Complex III: isp-1. Complex IV: cox-5a. ATP synthase: R04F11.2, atp-5. Translocase of the outer membrane (TOM70): tomm-70. VDAC: vdac-1. Uniprot C. elegans proteome database protein codes are presented above each plot. B) Proteins that mediate the mitochondrial unfolded protein response are not affected by mtON activation, two-tailed unpaired t test, −ATR n=5, +ATR n=4 biological replicates. Genes encoding proteins are hsp-6 and hsp-60.

B1: mtON: fusion of the 187 N-terminal amino acids of mouse IMMT1 to the light-activated proton pump (Mac) from Leptosphaeria maculans (protein)
chain: MLRACQLSGVTVAAQSCLCGKFVLRPLRPCRRYSTSSSSGLTAGKIAGAGLLFVGGGIGGTILYAKWDSHFRESVEKTIPYSDKLFGMVLGSAPYTVPLPKKPVQSGPLKISSVSEVMKDSKLPVAQSQKTKGDTPASAASTGAAQIISAAGDTLSVPAPAVQHEDTIKTECPNTNEGKSTSETTEEPAGLIVDQFEEVLMKTSQLFPLPTATQSAQPTHVAPVPTVLPDTPIYETVGDSGSKTLWVVFVLMLIASAAFTALSWKIPVNRRLYHVITTIITLTAALSYFAMATGHGVALNKIVIRTQHDHVPDTYETVYRQVYYARYIDWAITTPLLLLDLGLLAGMSGAHIFMAIVADLIMVLTGLFAAFGSEGTPQKWGWYTIACIAYIFVVWHLVLNGGANARVKGEKLRSFFVAIGAYTLILWTAYPIVWGLADGARKIGVDGEIIAYAVLDVLAKGVFGAWLLVTHANLRESDVELNGFWANGLNREGAIRIGEDDGAR
modifications: Synthetic Complete mtON fusion protein sequence
After mtON activation
  targets of the mitochondrial unfolded protein response: did not change
Mitochondrial staining and quantitative proteomics
  mitochondrial mass: did not impact mitochondrial mass
